Assay results as given in the nanobody polyreactivity screen of Harvey et al. (2022).

Experiment: yeast display, Sf9 membrane polyspecificity reagent, FACS + sequencing; frameworks hold sequencing errors
Method in brief: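 Genes from sorted yeast were amplified by colony PCR, read by MiSeq 2 × 250 sequencing and filtered on CDR length. These cells carried a synthetic nanobody library in Saccharomyces cerevisiae BJ5465 and were sorted by FACS into low and high (top ~1%) gates on anti-HA and streptavidin fluorescence. Polyreactivity is labelled according to the gate of origin.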

| Sequence | polyreactivity (PSR sort gate) |
| --- | --- |
| QVQLVESGGGLVQAGGSLRLSCAASGSNFDSYAMGWYRQAPGKERVLVAAITRSSVSTYYADSVKGRFTISRDNAKYTVYLQMNSLKPEDTAVYYCAAEDEWSLLYLWFGEYDYWGQGTQVTVSS | low polyreactivity |
| QVHLVDSGGGLVQAGGSLRLSCAASGYTFIAYTMGWYRQAPGKERELVAAITTGGRTYYADSVKGRFTISRDNAKNTVYLQMNSLKPEDTAVYYCAAYYSARYKYGGVDYWGQGTQVTVSS | high polyreactivity |
| QVQLVESGGGLVQAGGSPLLSCAASGSIFPSYDMGWYRQAPGKERELVAPLSWSGSTTYSADSVKGRFTISRDNAKNTVSLQMNSLKPEDTAVYYCAVDSNPPDWWAVIYGYWGQGTQVTVSS | low polyreactivity |
| QVHLVESGGGLVQAGGSLRLSCAASGNTFRWYDMGWYRQAPGKERELVAAITSSGSTTYYADSVKGRFTISRDNAKNTVYLQMNSLKPEDTAVFYCAARNYGPYDYWGQGTQVTVSS | low polyreactivity |
| QVQLVESGGGLVQAGGSLRLSCAASGGTFRNYAMGWYRQAPGKERELVAGITSGSRTNYADSVKGRFTISRDNAKNTVYLQMNSLKPEDTAVYYCNARGNYVGRPYPVKHAYRSYYWGQGTQVTVSS | high polyreactivity |
| QVQLVESGGGLVQEGGSLRLSCAASGFTFRYYAMGWYRQAPGKERELVAAIRWNGGSTYYADSVKGRFTISRDNAKNTVYLQMNRLKPEDTAVYYCNAAYSYGRYEYVYWGQGTQVTVSS | high polyreactivity |
| QVQLVESGGGLVQAGGSLRLSCAASGRIFSYNAMGWYRQAPGKEREFVAAIDWRAGSTYYADSVKGRFTISRDNAKKTVYLQMNSLKPEDTAVYYCAVEFGAYPFLYYYWGQGTQVTVSS | high polyreactivity |
| QDQLVESGGGLVQAGGSLRLSCAASGRTFGPNAMGWYRQAPGKERELVAAITGGGSTYYADSVKGRFTISRDNAKNTVYLQMNSLKPEDTAVYYCSNRGQGFHFGRDYWGQGTQVTVSS | low polyreactivity |
| QVQLVESGGGLVQAGGSLRLSCAASGYIFHLYGMGWYRQAPGKERELVARISYRGGSTYYADSVKGRFTISRDNAKNTVYLQMNSLKPEDTAVYYCAKDYYKHYYWGQGTQVTVSS | high polyreactivity |
| QVQLVESGGGLVQAGGSLRLSCAASGRIFYWYAMGWYRQAPGKEREFVAAITSSGGSTYYADSVKGRFTISRDNAKNTVDLQMNSLKPEDTAVYYCAARNPYYTSRGYWGQGTQVTVSS | high polyreactivity |
| QVQLVESGGGLVQAGGSLRLSCAASGSTFWSNAMGWYRQAPGKERELVAAISISDGNTYYADSVKGRFTISRDNAKNTVYLQMNSLKPEDTAVYYCATVGSEDGDPGFDYWGQGTQVTVSS | low polyreactivity |
| QVQLVESVGGLVQAGGSLRLSCAASGRTLFTNGMGWYRQAPGKESELVAAISTSGGSTHYADSVKGRFTISRDNAKNTVYLQMNSLKPEDTAVYYCAVDVLTVGQSYDHWGQGTQVTVSS | high polyreactivity |
| QVQLVESGGGLVQAGGSLGLSSAASGIIFLTYAMGWYSQAPGKDRELVAAINSTGSTNYADSVKGRFTISRDNAKNTVYLQMNSLTPEDTAVYYCAAEGLPYVRVFDFVSRYDYWGQGTQVNVSS | low polyreactivity |
| QVQLVESGGGIVQAGGSLRLSCAASGSIFGFYALGWYRQAPGKERELVAAISNSAGSTFYADSVKGRFTISRDNAKNTVYLQMNSLKPEDTAVYYCAAEGEFSDWQHQYVVYWYDYWGQGTQVTVSS | high polyreactivity |
| QVQLQESGGGLVQAGGSLRLSCAASGTIFRFRYMGWHRQAPGKERELVAGINGGTTTYYADSVIGRFTISRDNAINTVYLQMNSLKPDDTAVYNCAAGASRLTYYDYWGQGTQVTVSS | low polyreactivity |
| QVQLVESGGGLVQAGGSLRLSCAASGYTFYVYTMGWYRQAPGKERELVAAISGSGTSTYYADSVKGRFTISRDNAKNTVYFQMNSLKPVDTAVYYCAAEDYSRDVYSYDYWGQGTQVTVSS | low polyreactivity |
| QVQLVESGGGLVQAGGSLRLSCAASGSIFPTNAMGWYRQAPGKERELVAAISRGDSTYYADSVKGRFTISRDNAKNTVYLQMNSLKPEDTAVYYCAARRSRTLWSPFYYWGQGTQVTVSS | low polyreactivity |
| QVQLVESGGGLVQAGGSLRLSCAASGNTFGIYAMGWYRQAPGKERELVAAISSGTSTNYADSVKGRFTISRDNAKNTVYLQMNSLKPEDTAVYYCNADDQYQDVREDFWGQGTQVTVSS | low polyreactivity |
| QVQLVESGGGLVQAGGSLRLSCAASGRTFGGNAMGWYRQAPGKESELVAAISKSGGRTYYADSVKGRFTISRDNAKNTVYLQMNSLKPEDTAVYYCNKVLSVSQAGGFDYWGQGTQVTVSS | high polyreactivity |
| QVQLVESGGGLVQAGGSLRLSCAASGSTVFKNTMGWYRQAPGKEREFVAAIRWSTSRTYYADSVKGRFTISRDNAKNTVYLQMNSLKPEDTAVSYCNAGTSLSRRYPEDYYWGQGTLVTVSS | high polyreactivity |
| QVQLVESGGGLDQAGGSLRLSCAASGSIFAGYAMGWYRQAHGKERELVAAINWTGDSTYYADSVKGRFTISRDNAKNTVYLQMNRLKPEDTAVYYCAAIRRQKGLWDYYYWGQGTQVTVSS | low polyreactivity |
